Measurements taken from the DeepSol protein solubility set.

Test: soluble on expression in E. coli; label from the status in PepcDB or PDB records

With “MNDPREILAVDPYNNITSDEEDEQAIARELEFMERKRQALVERLKRKQEFKKPQDPNFEAIEVPQSPTKNRVKVGSHNATQQGTKFEGSNINEVRLSQLQQQPKPPASTTTYFMEKFQNAKKNEDKQIAKFESMMNARVHTFSTDEKKYVPIITNELESFSNLWVKKRYIPEDDLKRALHEIKILRLGKLFAKIRPPKFQEPEYANWATVGLISHKSDIKFTSSEKPVKFFMFTITDFQHTLDVYIFGKKGVERYYNLRLGDVIAILNPEVLPWRPSGRGNFIKSFNLRISHDFKCILEIGSSRDLGWCPIVNKKTHKKCGSPINISLHKCCDYHREVQFRGTSAKRIELNGGYALGAPTKVDSQPSLYKAKGENGFNIIKGTRKRLSEEEERLKKSSHNFTNSNSAKAFFDEKFQNPDMLANLDNKRRKIIETKKSTALSRELGKIMRRRESSGLEDKSVGERQKMKRTTESALQTGLIQRLGFDPTHGKISQVLKSSVSGSEPKNNLLGKKKTVINDLLHYKKEKVILAPSKNEWFKKRSHREEVWQKHFGSKETKETSDGSASDLEII” as the sequence, how does the “soluble on expression in E. coli” value read?
The value was “soluble”.

Which “soluble on expression in E. coli” value does the source give for “MLRFTNCSCKTFVKSSYKLNIRRMNSSFRTETDAFGEIHVPADKYWGAQTQRSFQNFKIGGARERMPLPLVHAFGVLKKSAAIVNESLGGLDPKISKAIQQAADEVASGKLDDHFPLVVFQTGSGTQSNMNANEVISNRAIEILGGKIGSKQVHPNNHCNQSQSSNDTFPTVMHIAASLQIQNELIPELTNLKNALEAKSKEFDHIVKIGRTHLQDATPLTLGQEFSGYVQQVENGIQRVAHSLKTLSFLAQGGTAVGTGLNTKPGFDVKIAEQISKETGLKFQTAPNRFEALAAHDAIVECSGALNTLACSLFKIAQDIRYLGSGPRCGYHELMLPENEPGSSIMPGKVNPTQNEALTQVCVQVMGNNAAITFAGSQGQFELNVFKPVMIANLLNSIRLITDAAYSFRVHCVEGIKANEPRIHELLTKSLMLVTALNPKIGYDAASKVAKNAHKKGITLKESALELGVLTEKEFDEWVVPEHMLGPK” here?
Its value is “soluble”.

With “MNYFNVGKIVNTQGLQGEMRVLSVTDFAEERFKKGAELVLFDEKDQFVQTVTIASHRKQKNFDIIKFKDMYHINTIEKYKGYSLKVAEEDLNDLDDGEFYYHEIIGLEVYEGDSLVGTIKEILQPGANDVWVVKRKGKRDLLLPYIPPVVLNVDIPSKRVDVEILEGLDDEDLEHHHHHH” as the sequence, how does the “soluble on expression in E. coli” value read?
Its value is “soluble”.

With “MTDLNKHIKQAQTQRKQLLEESRELHREKLLVQAENRFFLEYLTNKTEEYTEQPEKVWNSYLQKSGEIERRRQESASRYAEQISVLKTALLQKENIQSSLKRKLQAMRDIAILKEKQEKEIQTLQEETKKVQAETASKTREVQAQLLQEKRLLEKQLSEPDRRLLGKRKRRELNMKAQALKLAAKRFIFEYSCGINRENQQFKKELLQLIEQAQKLTATQSHLENRKQQLQQEQWYLESLIQARQRLQGSHNQCLNRQDVPKTTPSLPQGTKSRINPK” as the sequence, how does the “soluble on expression in E. coli” value read?
The value was “not soluble”.

For “MKRIGILTSGGDAPGMNAAVRAVTRVAIANGLEVFGIRYGFAGLVAGDIFPLESEDVAHLINVSGTFLYSARYPEFAEEEGQLAGIEQLKKHGIDAVVVIGGDGSYHGALQLTRHGFNSIGLPGTIDNDIPYTDATIGYDTACMTAMDAIDKIRDTASSHHRVFIVNVMGRNCGDIAMRVGVACGADAIVIPERPYDVEEIANRLKQAQESGKDHGLVVVAEGVMTADQFMAELKKYGDFDVRANVLGHMQRGGTPTVSDRVLASKLGSEAVHLLLEGKGGLAVGIENGKVTSHDILDLFDESHRGDYDLLKLNADLSR”, which “soluble on expression in E. coli” value is on record?
The value was “soluble”.

With “MSNTVLVSGASGFIALHILSQLLKQDYKVIGTVRSHEKEAKLLRQFQHNPNLTLEIVPDISHPNAFDKVLQKRGREIRYVLHTASPFHYDTTEYEKDLLIPALEGTKNILNSIKKYAADTVERVVVTSSCTAIITLAKMDDPSVVFTEESWNEATWESCQIDGINAYFASKKFAEKAAWEFTKENEDHIKFKLTTVNPSLLFGPQLFDEDVHGHLNTSCEMINGLIHTPVNASVPDFHSIFIDVRDVALAHLYAFQKENTAGKRLVVTNGKFGNQDILDILNEDFPQLRGLIPLGKPGTGDQVIDRGSTTDNSATRKILGFEFRSLHESVHDTAAQILKKENRL” as the sequence, how does the “soluble on expression in E. coli” value read?
The value was “not soluble”.

Which “soluble on expression in E. coli” value does the source give for “MAAEDELQLPRLPELFETGRQLLDEVEVATEPAGSRIVQEKVFKGLDLLEKAAEMLSQLDLFSRNEDLEEIASTDLKYLLVPAFQGALTMKQVNPSKRLDHLQRAREHFINYLTQCHCYHVAEFELPKTMNNSAENHTANSSMAYPSLVAMASQRQAKIQRYKQKKELEHRLSAMKSAVESGQADDERVREYYLLHLQRWIDISLEEIESIDQEIKILRERDSSREASTSNSSRQERPPVKPFILTRNMAQAKVFGAGYPSLPTMTVSDWYEQHRKYGALPDQGIAKAAPEEFRKAAQQQEEQEEKEEEDDEQTLHRAREWDDWKDTHPRGYGNRQNMGLEHHHHHH” here?
Its value is “soluble”.

Which “soluble on expression in E. coli” value does the source give for “MSDNDIIDDDVLNIEDMTGDDADLSAIEGDLNEIEEEQKKLKAIQNEMVGHMNLNTSSQSNSSQSLLTPEEKAEADAKSVYVGNVDYGATAEEIEQHFHGCGSVSRVTIQCDRFSGHPKGFAYVEFTEKEGMQNALAMTDSLLRGRQIKVDPKRTNKPGMSTTNRPPFRGRGGRGRGNVIVKYVYAGGFRPRGRGARRRPGFAPY” here?
The value was “soluble”.

For “MKEQILEKLKTVKYPGFEKDIVSFNFVKDIKIQDDGVFIDIEIVSANPEVANEIRKNTIEALSSLALKNIELNIITPKIPEEKSNSRSGKNIAPQVKNFIMVSSGKGGVGKSTTTVNLAISMAKMGKRVGILDADIYGPNIPRMLGETKTQPEVVGQRLKPILTHGVYMMSMGVLIEEGQGLMWRGAMIMKAIEQLLADVIWPELDVLFLDMPPGTGDAQITSAQSIPIAAGVCVSTPQTVSLDDSKRALDMFNKLHIPIAGVIENMSGFLCPDNGKEYDIFGKGTAEDMAKAYKSEVLAQIPIEMIVREGGDEGKPVSFYHPESVSSKRYLMAAEKIWSFIEKINNEGGADNSAIQPVMNGKSACSHLEHHHHHH”, which “soluble on expression in E. coli” value is on record?
The value was “soluble”.

With “MSKDAVSILFLGIDDNEGRRKNGQTTEHSRTDSMILSTFSPEKRQIRLLSIPRDTISYIPKVGYYDKITHAHAYGGPVAAMDSVEATLNVPVDYYVRVNMDAFVEAVDELGGIYYDVPYDLNEPNTDDSGRIKIKKGYQKLNGDEALAVARTRHHDSDLKRGERQMDLIKLLFQKAKSLDSYDKLDDLVQIVGKNAKHNLTSSEIKSLASMYLSDDIEFKKSQLKGKDDYLQNIYYYNPSVSSIMKYSNILRSDLGLSKITDKDEFLDQRVIKHYGTLIPLTPLDQSLLKNNQKDSSSSDDNNDDSTNSDNNNNIQSSEENSSNSNEGIDQSSQGSTQSDNYNQTNSSNSFNNNQDQMNQIYLEHHHHHH” as the sequence, how does the “soluble on expression in E. coli” value read?
Its value is “soluble”.

With “MYLDFYGLHAHPFQLTPDPAFFFGANGHTRAKSYLMFGLSQGEGFVVVTGDVGAGKTTLLSHMLRSLSDRSIRVARLSTTQLSADDTARVVARAFGLAEPAHPSKGAWLEAIEVFLTQVRAAGERCVLIVDEVQNMGFAALEELRMLGNLGIDDGHSALQTILVGQPQFRNTLAGPSLDQLRQRIVASCHLGPIEPEEVGHYMRYRLTQAGWRGDPSFEEAVFPAVYRHSGGLPRRINILCSRLLLAGFLQERHDLRAQDVEEVAAELEAEAGEVIGVAGETRAGARLDGRFIDAGSLADLEERVLGIEERLRKVDLVVRRGLLNFSDFVSELNAVWKGRPLEHHHHHH” as the sequence, how does the “soluble on expression in E. coli” value read?
The value was “not soluble”.

Which “soluble on expression in E. coli” value does the source give for “MTQQEYQNRRQALLAKMAPGSAAIIFAAPEATRSADSEYPYRQNSDFSYLTGFNEPEAVLILVKSDETHNHSVLFNRIRDLTAEIWFGRRLGQEAAPTKLAVDRALPFDEINEQLYLLLNRLDVIYHAQGQYAYADNIVFAALEKLRHGFRKNLRAPATLTDWRPWLHEMRLFKSAEEIAVLRRAGEISALAHTRAMEKCRPGMFEYQLEGEILHEFTRHGARYPAYNTIVGGGENGCILHYTENECELRDGDLVLIDAGCEYRGYAGDITRTFPVNGKFTPAQRAVYDIVLAAINKSLTLFRPGTSIREVTEEVVRIMVVGLVELGILKGDIEQLIAEQAHRPFFMHGLSHWLGMDVHDVGDYGSSDRGRILEPGMVLTVEPGLYIAPDADVPPQYRGIGIRIEDDIVITATGNENLTASVVKDPDDIEALMALNH” here?
Its value is “not soluble”.

Which “soluble on expression in E. coli” value does the source give for “MRTLKIEPLTKEAFAPFGDVIETAGSDYFMINNGSTRRYHKLATVETAQPEDNAIISIFSAEKLEMPLRIRMLERHPLGSQAFIPLLGNPFLVVVAPLGDVPVPGLVRAFLTNGRQGVNYHRGVWHHPVLTIEKRDDFLVVDRSGSGNNCDEHFFTEDEQLLLDPQSNQLEHHHHHH” here?
The value was “not soluble”.

With “MNELLAEMAAVSSRRKQSKPRRMSGEGDAMMSPIDLSTKSFDENNCEKGAGGALPLEDRSNILPHFSVPFANPQQFLSLCAQLGNSSSRNVSSTASTTSSCPIQSCSQSFSSPAALTWHVLDAHEDEQEIFSCDVCTTTFSNGQDIREHKCQKTLASRSTSVPPSTIPSSVCFLSTPTTPCLQFSINESIGTSEIREEDEEEDMDVEDGEHVANQLFGHLLQKSDDKSKMASLFNHAFPPFAAFPNMPPPFLMRQPFDPRADVFAAGRHDNDDDWEALMEISTSDEAEKIRALVGDKAVPTTDPNQCILCRRVLSCKSALQMHYRTHTGERPFKCKICQRAFTTKGNLKTHMGVHRSKHSFRGLPISLPPQLAAMHQHQHQIAPPQRIHIHNPPTSAASAAAAVAQIQASQQCPICQQRFLNAGELAVHITEHRNSLTQPPRVMPTPTTTRVQTFPFVPFFTTPPSLNATDMSTQFNLANILSAQLKNDSSPNTDTSSVEEKITRDDPPKMASLSPSNSSDSSSSVRQDILESSEFEEKLKKLEEPPILEQQVSTTPNPKNENPLLAMQKMWAETEPPPPRQMPVLSKHQCGVCFKHFSSSSALQIHMRTHTGDKPFKCDMCGRAFTTRGNLKVHMGTHSWQQSPSRRGRRIFDVASSVTEKPMLQSPILPTSGAPGASPLAMLGPNGLSGLEMMMMLWRTVCSVCQKVCQSPNELEQHLKEHLNNGSSAAPTPLASAATPPPS” as the sequence, how does the “soluble on expression in E. coli” value read?
Its value is “not soluble”.

Which “soluble on expression in E. coli” value does the source give for “MSLMSSKPIYKRVLLKASGEALMGDQGFGIDVAVADRIASDIAEARAMGVEVGVVVGGGNIFRGVAVASKGGDRVTGDHMGMLATVINALALATSLRKLSIDTVVLSAIAMPEICESFSQRAALHHLAQGRVVIFAGGTGNPFFTTDSAAALRAAEMGAEAIFKGTQVDGIYSADPKKDPTATRFDELTHSEVLGKGLAVMDIAAVALARENHIPIIVFSIHEKGGFAQILTGGGRKTIVHDKEGHHHHHH” here?
The value was “soluble”.

For “MSLDIRGMTVEEAEPVVKKFIDDLMMNGISKGYIIHGKGTGKLASGVWEILRKDKRVVSFRFGTPSEGGTGVTVVEVKEGHHHHHH”, which “soluble on expression in E. coli” value is on record?
The value was “not soluble”.

For “GPGSMSASGSGVAAIYGRAEEAQNAPVKLQPVPAFELYKAAREEELCSYRSLCRVLCMHSGGKLTKQQRRILEDMREELCLPTERAEAELAAAREDVLVTSVAASGVLKRRQDFFDGVTDVPLDTLSYAESAKDDNNSLYVAQTKVARTEQIVGGVHGRHAAPSKMSIREIHKNLERIGREVAATSSKLLYCTSVVDQQAYRNVLQQKREQLQAMLREVEDAPPDMSGIASVMPSEHVY”, which “soluble on expression in E. coli” value is on record?
The value was “soluble”.

For “MKKVLIKGAMALLLSSYSMIVSAEDKTITLMLDWFVNPNHGPVVVAQQKGYFKEEGLNITIQEPADPSMPAKLVAANNIDLAISYQTSLTIDVAAGLPLIRSATLIATPLNTLMVLDNGKINSLADLKGKKIGIAIAGNEEATIGTMLKTENVNFSDVNIINVGWALSSSLASGKVDAIWGGLRNFETNQLALEGYKAKSFFPEEHGVPSYDELVFVANAKTYDADALKKFNHAIEKATQFIVNHPEESWKTFISYAPDTLNNELNKRAWNDTLTRFALRPSAVDLQRYDRFSDFMYRHQMIKTQPKAQNFVPVL”, which “soluble on expression in E. coli” value is on record?
The value was “not soluble”.

For “NIDLDIHARENIANITNAMIELVSQDCHWLKVWFEWSASTRDEVWPLFVSTNRTNQLLVQNMFIKAIERGEVCDQHDSEHLANLFHGICYSLFVQANRFKGEAELKELVSAYLDMLCIYNREH”, which “soluble on expression in E. coli” value is on record?
The value was “not soluble”.
